Experimental data: the nanobody polyreactivity screen of Harvey et al. (2022)

Test: yeast display, Sf9 membrane polyspecificity reagent, FACS + sequencing; frameworks hold sequencing errors
In short: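 Galactose-induced (36–48 hours) yeast carrying a synthetic nanobody display library were exposed to 10% biotinylated, detergent-solubilized Sf9 membrane reagent at 4 °C for 1 hour. FACS followed streptavidin microbead enrichment, using low and high (top ~1%) gates for expression (anti-HA) and reagent binding (streptavidin). Colony PCR, MiSeq 2 × 250 sequencing and CDR-length filtering followed. Labels for polyreactivity reflect the gate of origin.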

Sequence	polyreactivity (PSR sort gate)
EVQLVESGGGLVQAGGSLRLSCAASGFIFGYNAMGWYRQAPGKERDLVAAISWSGGSTYYADSVKGRYTISRDNAKNTVYLQMNSLKPEDTAVYYCNRGYTAQVFTEFDYWGQGTLVTVSS	low polyreactivity
QVQLVDSGGGLVQAGGSLRLSCAASGITFGNYAMGWYRQAPGKERELVASISWNVGSTYYADSVKGRFTISRDNAKNTVYLQMNSLKPEDTAVYYCARGYDRPRVATFHRFDYWGQGTQVTVSS	low polyreactivity
QVQLVESGGGLVQAGGSLRLSCAASGRTFETNAMGWYRQAPGKERELVASINWSGGSTYYADSVKGRFTISRDNAKNTVYLQMNSLKPEDTAVYYCAAEHSYWDWWSYYYWGQGTLVTVSS	low polyreactivity
QVQLVESGGGLVQAGGSLRLSCAASGSTFVGYAMGWYRQAPGKERELVASITRRGGSTYYADSVKGRFTISRDNAKNTVYLQMNSLKPEDTAVYYCATPLYKTATWRAYEYWGQGTQVTVSS	high polyreactivity
QVQLVESGGGLVQAGGSLRLSCAASGFTFDYYFMGWYRQAPGKERELVAAISLRSGRTYYADSVKGRFTISRDNAKNTVYLQMKSLKPEDTAVYYCAAESRGVGAYYYWGQGTQVTVSS	high polyreactivity
QVQLVESGGGLVQAGGSLRLSCAASGSIFDYYTMGWYRQAPGKERELVATIRSGDSTNYADSVKGRFTISRDNAKNPVYVQMNSLKPEDTAVYYCAADDGAYPTLYDYWGQGTQVTVSS	low polyreactivity
QVQLVESGGGLVQAGGSLRLSCAASGITFGDYAMGWDRQAPGKERELVAGINWSGDGTYYSDSVKGRFTISRDNAKNTFYLQMNSLKPEDTAVYYCAAETFYDYGGYDYWGQGTQVTVSS	low polyreactivity
QVQLEESGGGLVQAGGSLRLSCAASGRIFPYYTMGWYRQAPGKERELVAAISWSGGSTYYADSVKGRFTISRDNAKNTVYLQMNSLKPEDTAVYYCNVRKVYRYQYRFEYWGQGTQVTVSS	high polyreactivity
QDQLVESGGGLVQAGGSLRLSCAASGRIIRAYAMGWYRQAPGKERELVAAISGGSNTNYADSVKGRFTISRDNAKNTVYLQMNSLKPEDTAVYYCAADAGYWESLWYPYGFYWGQGTQVTVSS	low polyreactivity
QVQLVESGGGLVQAGGRLRLSCAASGSTFYNYAMGWYRQAPGKERELVASIPWNGGSTYYADSVKGRFTISRDNAKNTVYLQMNSLKPEDTAVYYCAADWTWTYPYDYWGQGTQVTVSS	low polyreactivity
QVQLEESWGGLVQAGGSHRLICAASGSTIGYYAMGWYRQAPWKEREFVASITWGGASTDYADSVKGRFTISRDNAKNSVYLQMNSMKPEDTAVYYCAKDNWDNPRPTSEMDYWGQGTQVTVSS	low polyreactivity
QVQLVESGGGLVQAGGTLRLSCGASGGTFYLYTMGWYRPAPGKERELVAAISRGGSTNYADSVKGRFTISRDNAKNTVYLLMNSLIPEDTAVFYCAAVRSTGFRYYYADEYDYWGQGTQVTVSS	low polyreactivity
QVQLVESGGGLVQAGGSLRLSCAASGFTFTAYAMGWYRQEPGKERELVAAITGTGGSTKYADSVKGRFTISRDNATNTVYLQMNSLKPEDTAVYYCAKRYRLRGRYDYWGQGTQVTVSS	high polyreactivity
QVQLVETGGGLVQAGGSLRLSCAASGFIFHPNTMGWYSPAPGKERELVAGISYSGGITYTDSVKGRFTISRDNAKNTVYLQMNSLKPEDTAVYYCSAGDKYHYYWGQGTQVTVSS	low polyreactivity
QVQLVESGGGLVQAGGSLRLSCAASGSTCTGYTMGWYRQAPGNERELVAAITYRGGSTYYADSVKGRFTISRDNAKNTVYLQKNSLKPEETAVYYCAAVPEYYEYSPYDYWGQGTQVTVSS	low polyreactivity
QVQLVQSVGGLVHAGGSLRLSCAASGRTYGVYAMGWYRQAPGKERELVAAITYSGGSTYYADSVKGRFTISRDNAKNTVYLQMNSLKPEDTAVYYCAAETRVGLYYVREVYYWGQGTQVTVSS	low polyreactivity
QLQLVESGGGLVQAGGSLSLTFAASGIISNYNAMGWYIQAPGKERELVSAISRSGTRKYYADSVKGRYTISRDNAKNTVYLQMNSLKPEDTAVYDCAAPSWSSKGYCKGYYWGQGTQVTVSS	high polyreactivity
QVQLVESGGGLVQAGGSLRLSCAASGTIFSRNAMGWYRQAPGKERELVAAINARGGSTYYADSVKGRFTISRDNAKNTVYLQMNSLKPEDTAVYYCAARYGVGRADYYWGQGTQVTVSS	high polyreactivity
QVQLVESGGGLVQAGGSLRLSCASTGFTFYRYAMGWYRQARGKERELVAAITRSGSRTYYADSVKGRFTISRDNAKNTVYLQMNSLKPEDTAVYYCNAPRPASTDRRRYNYWGQGTQVTVSS	high polyreactivity
QVQLVESRGGLVQAGGSLRLSCAASGRIFWVNAMGWYRQAPGKERELVAVISRGGSTTYADSVKGRFTISRDNAKNTVYLQMNSLKPEDTAVYYCAADAYRHAFLYYGYDYWGQGTQVTVSS	low polyreactivity
QVQLVESGGGLVQAGGSLRLSCAASGFIFRRYTMGWSRQAHGKERELVAAITSSGGTNYADSVKGRFTISRDNAKNTVYLQMNSLKPEDTAVYFCAAESVSSVWYDYLGQGTQVTVSS	high polyreactivity
QVQLVESGGGLVQAGGSLRLSCAASGYIFAYYAMGWYRQAPGKERELVATIRSGGSTNYADSVKGRFTISRDNAKNTGYLQMNILKPEDTAVYYCARDDATACDYWGQGSQVTVSS	low polyreactivity

Sequence	polyreactivity (PSR sort gate)
QVHLVESGGGLVQAGGSLRISCAASGFTFVWYAMGWYRPPPGKERELVAALSRRGTRTYYADSVKGRFSISRDNAKNTVYLQMNSLKPEDTAVYYSAASNGYEAVTYDYWGQGTQVTVSS	high polyreactivity
QVQLVESGGGLVQAGGGLRLSCAASGFIFSLYAMGWYRQAPGKERELVAAISKRGGSTNYADSLKGRFTISRDNAKNTVYLQRNSLKPDVTAVYYCAATRNYYGRYDYWGQGTQVTVSS	high polyreactivity
QVQLVESGGGLVQAGGSLRLCCAASGSTFADNAMGWYRQAPGTDGEFVAGISTNGGSTYYADSVKGRFRISRDNAKTTVDCQLNSLKPEDTAVYDSAAVNYYDQYGDYYWGQGTQVTVSS	low polyreactivity
QVQLVESGGGLVQAGGSLRLSCAASGRIIRVNAMGWYRQAPGKERELVAAISGRGGSTYYADSVKGRFTISRDNAKITVYLQMNSLKPEDTAVYYCAKKSYSYGYNSYDYWGQGTQVTVSS	high polyreactivity
QVQHVESGGGLVQAGGSLRLSCAASGRTSKKYVMGWYRQAPGKERELVATLNWSGGSTYYADSVKGRFTISRDNAKNTVYLQMNSLKPEDTAVYYCAARSEFYWGWEYITYDYWGQGTQVTVSS	low polyreactivity
QVHLVESGGGLGHAGGSLLLSCAASGSIFGRNAMGWYRQAPGKERELVADIWNGGSTYYADSVKGRFTISRDNAKNTVYLQMNILKPEDTAVYYCNADANDDGRFGGYIKYDYWGQGTQVTVSS	low polyreactivity
QVQLVESGGGLVQAGGSLRLSCAASGRIFGVNAMGWYRQAPGKEREFVAVISSVGSTYYADSVKGRFTISRDNAKNTVYLQMKSLKPEDTAVYYCNAVVGRWFPYYLSDYWGQGTQVTVSS	low polyreactivity
QVQLVESGGGLVQAGGSLRLSCAASGNIFRYNAMGWYRQAPGKERELVAAISSGGSTYYADSVKGRFTISRDNAKNTVYLQMNSLKPEDTAVYYCNRRRWLWQTARGDYWGQGTQVTVSS	high polyreactivity
QVQIVESGGGLVQAGGSLRLSCAASGSTFPSYAMGWYRQATGKEREWVAAITRSCGRTYYADSVKGRFTISRDNSKHTVYLQMNSLKPEDTAVYYCAADLGSNYDYWGQGTQVTVLS	low polyreactivity
QVQLVESGGGLVQAGGSLRLSCAASGFTFSSNAMGWYRQAPGKERELVAAISRGGRTYYADSVKGRFTISRDNAKNTVYLQMNSLKPEDTAVYYCATDYVYRYDYWGQGTQVTVSS	high polyreactivity
QVQLVESGGGLVQAGGSLRLSCAASGNIFEYYAMGWYRQAPGKERELVATITSGGSTNYADSVKGRFTISRDNAKNTVYLQMNSLKPEDTAVYYCNADIISVSVYYFIVEYDYWGQGTQVTVSS	low polyreactivity
QVQLVESGGGLVQAGGSLRLSCAASRSTFGFYAMGWYRQAPGTERELVAAISRRGGTTYYADSVKGRFTISRDIAKNTFYLQMNSLKPEDTAVYYCAARIHYYAGYDYWGQGTQVTVSS	high polyreactivity
QVQLVETGGRLGQAGGSLRLSCAASGRTFGYNAMGWYRQAPGKERELVAAISWSGTRTYYADSVKWRFTISRDNAKNTVYLQRNSLKPEDTAVYYCAARIAVYGGSYGWFDYWGQGTQVTVSS	high polyreactivity
QVQLVESGGGLVQAGGSLRLSCAASGRIFRRYAMGCYIQAPGKERELVAGITGSGTSTYYADSVKGRFTISRDNAKNTVYLQMNSLKPEDTAVYYCAADRGRGYRYNYWGQGTQVTVSS	high polyreactivity
QVQLVESGGGLVQAGGSLRLSCAASGRTFSPYAMGWYRQAPGKERDLVAAINGGGGTTYYADSVKGRFTISRDNAKNTVYLQMNSLKPEDTAVYYCAAGYNYTSYADLDYWGQGTQVTVSS	low polyreactivity
QVQLVESGGGLVQAGGSLRLSCAASGSTLFVNTKGWYRQAPGNERELVAAITSSGGSRYYADSVKGRFTISRDNAKNTVYLQMNSLKPQDTAVYYCAAKELGSPYDYWGQGTQVTVSS	high polyreactivity
QVQLVESGGGLVQAGGSLRLSCSASGRIFGYNAMGWSRQAPGKERELVAAISYSGTSTYYADSVKGRFTISRDKAKNTVYLQMNSLKPEDTAVYYCATLAYRWSVAYEYLGQGTQVTVSS	low polyreactivity
QVQLVESGGGLVQAGGSLRLICAASGRSFNLYAMGWYRQAPGKERELVAAISYSGGRTYSADSVKGRFTISRDNAKNTVYLQMNSLKPEDTAVYYCNTVRGSVRQAGVGYEYWGQGTQVTVSS	high polyreactivity
QVQLVESGGGLVQAGGSLRLSCAASGITFLPTAMGWYRQAPGKERELVAAITWRGGSTYYADAVKGRFTISRDHAKNTVYLQMNSLKREDTAVYYCGATGWQYVYYNYLWLKGGYWGQGTQVSVSS	high polyreactivity
QVQLLQSGGGLVQAGGSLRLSCAASGFIFLGYAMGWYRQAPGNERELVAAISENSGTTSYADSVKGRFTISRDNAKNTVYLQMNSLKPEDTAVYYCAADSIGNYLLYDYWGQGTQVTVSS	low polyreactivity
QVQLVESGAGLVQAGGSLRLSCAASGFIFAGNAMGWYIQAPGKERELVAAITRRGGSTHYADSVKGRFTISRDKAKNTVYLQMNSLKPEDTAVYYCNAAVQPPLSDYWGQGTQVTVSS	low polyreactivity
